Reference: paper PMC10529462 (Brain research, 2023)
Changes are numbered by the printed parent chain. Numbers in names are those of the source. No end group written: not given here.

Assays:
Experiment in all cases: fluorescence polarisation
TAMRA-PS1-10mer = biological target: TAMRA-PS1-10mer
[1] = biological target: T1, Mint1^WT C-terminal construct, amino acids 453-839 (rat, UniProt O35430 453-839)
T1 sequence (looked up): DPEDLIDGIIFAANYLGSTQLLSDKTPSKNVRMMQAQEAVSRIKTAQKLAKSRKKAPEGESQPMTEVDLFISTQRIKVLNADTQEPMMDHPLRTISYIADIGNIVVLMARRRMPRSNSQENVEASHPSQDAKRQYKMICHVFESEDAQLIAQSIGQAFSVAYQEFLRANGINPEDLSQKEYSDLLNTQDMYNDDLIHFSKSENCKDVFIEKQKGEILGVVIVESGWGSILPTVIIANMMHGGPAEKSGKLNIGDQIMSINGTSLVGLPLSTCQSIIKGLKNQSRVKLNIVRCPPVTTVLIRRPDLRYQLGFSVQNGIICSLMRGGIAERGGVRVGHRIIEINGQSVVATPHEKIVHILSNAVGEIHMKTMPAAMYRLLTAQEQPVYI

[2] = biological target: T2, Mint1^Y549A/F610A C-terminal construct, amino acids 453-839 (rat, UniProt O35430 453-839, Y549A | F610A)
T2 sequence (looked up): T1 sequence (looked up) with Y97A, F158A

[3] = biological target: T3, Mint1^Y633A C-terminal construct, amino acids 453-839 (rat, UniProt O35430 453-839, Y633A)
T3 sequence (looked up): T1 sequence (looked up) with Y181A

B1: Mint1^Y633A C-terminal construct, amino acids 453-839 (domain or fragment)
chain: T1 sequence (looked up) with Y181A
- Kd (TAMRA-PS1-10mer): 139 µM

B2: Mint1^Y549A/F610A C-terminal construct, amino acids 453-839 (domain or fragment)
chain: T1 sequence (looked up) with Y97A, F158A
- Kd (TAMRA-PS1-10mer): 301 µM

B3: Mint1^WT C-terminal construct, amino acids 453-839 (domain or fragment)
chain: T1 sequence (looked up)
- Kd (TAMRA-PS1-10mer): 358 µM

Binder: {TAMRA}-NNGQNGYENPTYKFFEQMQN [TAMRA-APP17-mer]
- Kd [1]: 282 ± 8.3 µM
- Kd [2]: 382 ± 12.5 µM
- Kd [3]: 14.5 ± 0.74 µM

Binder: {TAMRA}-NNGLSSGGRARHSYHHPDQDHWC [TAMRA-VGCC2.2-20mer]
- Kd [1]: 619 ± 57.9 µM
- Kd [2]: 1460 ± 25.2 µM
